Experimental data from patent publication US20220213211A1 (Memorial Sloan Kettering, published 2022).

Biological target: T1, biotinylated recombinant CD371 (soluble CD371) (Homo sapiens (Human), UniProt Q5QGZ9 65-265, biotinylated (site not stated))
T1 sequence: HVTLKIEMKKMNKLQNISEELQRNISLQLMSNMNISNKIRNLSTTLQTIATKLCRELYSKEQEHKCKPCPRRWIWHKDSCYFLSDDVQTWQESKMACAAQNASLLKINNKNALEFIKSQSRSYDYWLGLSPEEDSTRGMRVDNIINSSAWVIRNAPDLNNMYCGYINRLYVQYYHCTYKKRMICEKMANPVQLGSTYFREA
Test: biotinylated CD371 captured with streptavidin, soluble scFv as analyte
Description: For scFv affinity measurements, biotinylated CD371 was captured with streptavidin, and soluble scFv was used as analyte. […] Consistent with the flow cytometry results, weak binding of the 1B10 scFv in the VH-VL orientation was observed but a dissociation constant could not be calculated by any curve fit method.

B1: B10 scFv in the VL-VH orientation (scFv)
scFv: DIVMTQSPDSLAVSLGERATINCKSSQSVLDSYNNENNLAWYQQKPGQPPKLLIYWASTRESGVPDRFSGSGSGTDFTLTISSLQAEDVAVYYCQQYTSEPITFGQGTKVEIKGGGGSGGGGSGGGSGGGGSEVQLLESGGGLVQPGGSLRLSCAASGFTFSDYQMSWVRQAPGKGLEWVSGIQGGGGSTYYADSVKGRFTISRDNSKNTLYLQMNSLRAEDTAVYYCAREMWRGDYYSGMDVWGQGTTVTVSS
notes: also called 1B10 scFv VL-VH; VL-VH scFv
Kd: 16 nM
koff: 0.00952 s⁻¹
kon: 599000 M⁻¹ s⁻¹
